Assay [1] addresses T1, Bacillus stearothemophillus-derived lactic acid dehydrogenase (L-LACTIC DEHYDROGENASE) expressed in E. coli (Bacillus stearothemophillus, UniProt P00344 1-317).
T1 construct: purity about 80%; also called LDH
Put plainly: SPR (BIAcore), LDH immobilized on CM5, 1:1 binding with mass transfer model. Here is the method:
(§1) […] on CM5 were activated using EDC/NHS (equal amounts of EDC and NHS of Amine Coupling Kit (BIAcore) were mixed) (8-minute contact time), and the chip was washed with HBS-EP (BIAcore). Twenty μg/mL of LDH (Sigma, […] diluted in 10 mM acetic acid (pH5.0)) was then added to the chip. After washing the chip with HBS-EP, 1 M ethanol amine (pH 8.5) was added to inactivate the remaining activated carboxyl groups. Following the inactivation, the chip was washed with HBS-EP to remove all LDHs that had not been covalently bound. The amount of immobilized antigens was calculated 5653 RU. When binding was evaluated by adding saturating amounts of clone No. 430 to the sensor, the value was near 800 RU.
(§2) All experiments were performed in HBS-EP at 25° C., and regeneration was performed under optimum conditions. Washing was performed for 1 min using 50 mM citric acid (pH2.5).
(§3) The binding was monitored by changing the LDH concentration (5×10⁻⁸ M to 4.0×10⁻⁷ M). […] Base-line correction was also taken into consideration. Values of ka (1/Ms), kd (1/S), and KD calculated based on kinetic analysis using global fitting (BIAevaluation Ver. 3) were as shown in Table 6.
Background: SPR reads the build-up and loss of mass on a sensor chip optically.

For assay [2], the target named is T1, Bacillus stearothemophillus-derived …. The assay is described as follows: SPR (BIAcore), LDH immobilized on CM5 at 5653 RU. Here is the method: Procedure similar to that with GST was used to immobilize LDH on CM-sensor chip (Sensor Chip CM5, Research grade, BIAcore) using the amino coupling method.
as §1

Assay [3] shares this target. The assay is described as follows: cell-based or functional assay.
For assay [4] the target is unchanged. The assay is described as follows: SPR (BIAcore), LDH immobilized on CM5, (Langmuir) binding model. Here is the method: as §1, §2, §3
Assay [5] has the same target. Put plainly: ELISA: LDH on the plate (PBS wells as negative control), culture supernatant with VHH-cp3, anti-cp3 monoclonal and anti-mouse IgG-POD, OD 492 nm. Here is the method:
Similarly to anti-GST VHH, 60 clones and 36 clones were prepared as monoclones from the 3rd and 4th screenings, respectively. Next, ELISA was performed similarly as for anti-GST VHH.
LDH dissolved in PBS at 200 μg/mL was used to sensitize MaxiSorp™. Culture supernatant, 10-fold diluted mouse anti-cp3 monoclonal 3G3A8H1, and 1000-fold diluted goat anti-mouse IgG (H+L)-POD were added as primary, secondary, and tertiary antibodies, respectively, to this antigen-sensitized plate. As negative control, PBS was added instead of performing antigen sensitization.
For orientation: ELISA stands for enzyme-linked immunosorbent assay.

The target in assay [6] is glutathione S-transferase (GST). The assay is described as follows: SPR (BIAcore 1000), GST immobilized on CM5, global fitting; mass transport limitation, value used as the lower limit.
Assay [7] has the same target. Put plainly: SPR (BIAcore 1000), GST immobilized on CM5, from kinetic analysis.
The target is the same in assay [8]. The assay is described as follows: SPR (BIAcore 1000), GST immobilized on CM5 at 2252 RU.
For assay [9] the target is unchanged. The assay is described as follows: cell-based or functional assay.
Assay [10] shares this target. Put plainly: SPR (BIAcore 1000), GST immobilized on CM5, Langmuir model, global fitting.
For assay [11] the target is unchanged. The assay is described as follows: SPR (BIAcore 1000), GST immobilized on CM5.
For assay [12] the target is unchanged. The assay is described as follows: SPR (BIAcore 1000), GST immobilized on CM5 at 1750 RU.

What is called Kd is a measure of binding affinity in units of concentration. Broadly, the koff is the first-order rate constant of dissociation. High values mean a short-lived complex, low ones a long-lived complex. As usually defined, the kon is the rate constant with which the complex forms.

Where only a bound is given, the exact number is not on record here.

T1 sequence (P00344 whole entry): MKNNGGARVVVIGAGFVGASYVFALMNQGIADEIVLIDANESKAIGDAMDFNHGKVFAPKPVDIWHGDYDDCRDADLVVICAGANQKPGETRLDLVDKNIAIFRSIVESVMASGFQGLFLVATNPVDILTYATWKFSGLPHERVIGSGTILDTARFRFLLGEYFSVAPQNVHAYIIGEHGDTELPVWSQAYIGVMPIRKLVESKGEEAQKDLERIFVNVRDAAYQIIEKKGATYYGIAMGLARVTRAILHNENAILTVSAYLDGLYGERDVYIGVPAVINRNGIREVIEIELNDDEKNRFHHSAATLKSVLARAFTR

B1: anti-LDH VHH clone No. 421, protein A-fused type (VHH)
VHH: AVQLVESGGGSVQAGGFLRLSCVASVNYCMAWFRQAPGKEREGVAAINRDGRTTAYADSVKGRFTISRGNEKNTVYLLMNNLKAEDTATYYCAAYVGGSYSCGTLENDGYKYWGQGTQVTVSS
notes: not shown: protein A part of the vector after SalI digestion and self-ligation
Turning to B1, in assay [1], the Ka is 5.83e+06 M⁻¹, the Kd worked out at 171 nM, the dissociation rate constant (koff) is 0.00409 s⁻¹ and the kon came to 23900 M⁻¹ s⁻¹. Further, in assay [2], the “response at saturating amount (RU)” value is approximately 1400 RU. The “LDH reaction rate in the direction of lactic acid production” value (“LDH reaction rate in the direction” for short) in [3] was found to be 10 fold. Further, in assay [4], the Ka came to 5.83e+06 M⁻¹, binding was put at a Kd of 172 nM, the koff turned out to be 0.00409 s⁻¹ and the kon is 23900 M⁻¹ s⁻¹.

B2: anti-LDH VHH clone No. 428, protein A-fused type (VHH)
VHH: QVQLVESGGGLVQPGGSLRLSCAASGFSFSRSGMSWGRQAPGKGFEWVSRISSGGATWYADSVKGRFSISRDNAKNTVYLQLDSLKTEDTGMYYCAASDRSGSTYRGQGTQVTVSS
notes: as for B1
In assay [1], B2 came in with a Ka of 2.86e+06 M⁻¹, a Kd of 350 nM, a koff of 0.00516 s⁻¹ and a kon of 14800 M⁻¹ s⁻¹. The “response at saturating amount (RU)” value in assay [2] was approximately 500 RU. Moreover, in assay [3], the “LDH reaction rate in the direction” value came to 5 fold. In assay [4], this molecule registered a Ka of 2.81e+06 M⁻¹, a dissociation constant Kd of 356 nM, a dissociation rate constant (koff) of 0.00513 s⁻¹ and an on-rate (kon) of 14400 M⁻¹ s⁻¹.

B3: anti-LDH VHH clone No. 430, protein A-fused type (VHH)
VHH: EVQLVESGGDSVQAGGSLRLSCVASSSTYSGNCMAWFRQAPGKEREGVAVVYTDDDTTYYADSVKGRFTISQDTAKNTLYLQMNSLKPEDTAMYYCATRDAWRRIGSWRDVAIYDYWGQGTQVTVSS
notes: as for B1
In assay [1], B3 had a Ka of 4.04e+06 M⁻¹, a Kd of 248 nM, a koff of 0.00285 s⁻¹ and a kon of 11500 M⁻¹ s⁻¹. Besides, the “response at saturating amount (RU)” value in [2] is approximately 800 RU. Further, the “IC50 of LDH enzyme inhibition” value in assay [3] was approximately 400 nM. Further, in [4], the Ka stood at 3.8e+06 M⁻¹; the affinity, expressed as Kd, was 263 nM; the off-rate (koff) is 0.00258 s⁻¹; the kon was 9820 M⁻¹ s⁻¹.

B4: anti-LDH VHH clone No. 434, protein A-fused type (VHH)
VHH: EVQLVESGGGSVQAGGSLRLSCAASGYTSGRNYMAWFRQAPGKEREGVGRIYSTGGSARYADSVKGRFTISQDLSNDTMYLQMNNLKPEDTGMYYCAAGKPYGDMLDARGYKYWGHGTQVTVSS
notes: as for B1
Regarding B4, the binding result in assay [5] was “binds”.

B5: anti-LDH VHH clone No. 407, protein A-fused type (VHH)
VHH: AVQLVESGGGSVQTGGSLRLSCVASGYTYSSARIGWFRQAPGKEREGVAAILTDGVTTYYADAVKGRFTISRDNAKNTVYLQMNSLKPEDTAMYYCAIRTSPYSGGWFRVSQYNGWGQGTQVTVSS
notes: as for B1
For the molecule B5, the binding result in assay [5] is “binds”.

B6: anti-LDH VHH clone No. 418, protein A-fused type (VHH, not shown: large carriers)
VHH: EVQLVESGGGSVQAGDSLRLSCTTSGFTFANSVMVWYRQGSGNECKLVSSISTDGTTYYSTSVKGRFTISRDNAKNTVYLQMNNLKAEDTAMYYCAADFQASTVGRCDGYGYAKWGQGTQVTVSS
As for B6, the “LDH reaction rate in the direction” value in assay [3] was determined as 10 fold.

B7: anti-LDH VHH clone No. 426, protein A-fused type (VHH)
VHH: EVQLVESGGGSVQAGGSLRLSCAAPGNTYSTNLMGWFRQAPGKEREGVAAICCGRGTTFYADSVKGRFTISQDNAKKMVYLQMELLRPEDTGIYYCASGSVRGIWSGTSQYKYWGQGTQVTVSS
notes: as for B1
Turning to B7, in [5], the binding result was “binds”.

B8: anti-GST VHH clone No. 75, protein A-fused type (VHH, not shown: large carriers)
VHH: AVQLVDSGGGSVQAGGSLRLSCAASGTTYCTYDIAWYRQAPEKDYEFVSVIDSDGSTRYADSVKGRFTISRDNAKNTVYLQMNSLKPEDTAMYYCKTVFKSWCSDGLGTTLPNYWGQGTQVTVSS
In turn, B8 displayed a koff in assay [6] of 0.000915 s⁻¹. Moreover, the dissociation constant Kd in [7] was 24 nM. This molecule gave a response at saturating amount (RU) in [8] of 300 RU. In addition, the GST enzyme inhibitory activity (absorbance at 340 nm, CDNB and glutathione as substrates) in assay [9] was more than 1.5 µM. The kon in assay [10] worked out at 38100 M⁻¹ s⁻¹.

B9: anti-GST VHH clone No. 29, protein A-fused type (VHH, not shown: large carriers)
VHH: EVQLVESGGGSVQAGGSLKLSCGLSGYTSSMNAMGWFRQAPGKEREGVAAVSRGGKAYYADSVKGRFTVSRDNVKNTVDLQMKGLKAEDTATYYCAATDESPLRRRFSLLDRRRYDWWGRGTQVFVSS
In assay [11], B9 showed a koff of 0.00255 s⁻¹ and a kon of 25400 M⁻¹ s⁻¹. Besides, the Kd in [7] turned out to be 100 nM. The molecule also showed a response at saturating amount (RU) in assay [12] of 460 RU.

B10: anti-LDH VHH clone No. 415, protein A-fused type (VHH)
VHH: DVQLVESGGGSEQAGGSLRLSCAAPNITYCTGDRSWYRQAPGKEREFVSSINNDGTASYADSVKGRFTISQDIVKKSVYLRMNSLKPEDTAMYYCKTDFVDGTWCAIKFGRTHWGQGTQVTVSS
notes: as for B1
Consider B10, for which, in [5], the binding result is on record as “binds”.

The values above are taken from patent US20050037421A1 (INSTITUTE FOR ANTIBODIES, published 2005).
